Laboratory results: paper PMC3193277

Target: 6xHis-p53 (UniProt P04637 1-393)
Experiment: EMSA

6xHis-p53, sequence (P04637 whole entry): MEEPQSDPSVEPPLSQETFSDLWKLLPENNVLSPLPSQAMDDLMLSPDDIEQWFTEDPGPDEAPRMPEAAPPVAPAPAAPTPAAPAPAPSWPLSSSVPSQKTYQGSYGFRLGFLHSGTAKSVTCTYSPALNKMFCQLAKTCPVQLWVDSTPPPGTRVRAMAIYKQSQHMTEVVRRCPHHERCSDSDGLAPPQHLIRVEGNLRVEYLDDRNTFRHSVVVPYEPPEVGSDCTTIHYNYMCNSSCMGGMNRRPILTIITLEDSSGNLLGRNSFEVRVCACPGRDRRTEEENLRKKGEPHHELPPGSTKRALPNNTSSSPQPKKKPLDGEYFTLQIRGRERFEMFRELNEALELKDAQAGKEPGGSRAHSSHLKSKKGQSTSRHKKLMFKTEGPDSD

B1: GADD45 probe (intron 3 p53RE) (dsDNA)
DNA 1: GTAGCTGATATCGAATTCTCGAGCAGAACATGTCTAAGCATGCTGGGCTCGAGAATTCCTGCAGCC
DNA 2: GGCTGCAGGAATTCTCGAGCCCAGCATGCTTAGACATGTTCTGCTCGAGAATTCGATATCAGCTAC
  binding result: binds
